We go through 15 molecules from patent US20180303913A1.

Several values for one entry are separate records, joined by “and”; a condition that tells them apart may be missing. Equal entries are not always repeated.

First the molecules themselves.
T1: Flag-HA-ID2 (human) (UniProt Q02363)
T1 sequence: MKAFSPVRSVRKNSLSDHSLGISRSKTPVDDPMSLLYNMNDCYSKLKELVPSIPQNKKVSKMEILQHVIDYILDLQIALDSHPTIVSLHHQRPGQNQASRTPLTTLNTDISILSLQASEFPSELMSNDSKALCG

B1: Elongator complex protein 4 (protein)
chain: MAAVATCGSVAASTGSAVATASKSNVTSFQRRGPRASVTNDSGPRLVSIAGTRPSVRNGQLLVSTGLPALDQLLGGGLAVGTVLLIEEDKYNIYSPLLFKYFLAEGIVNGHTLLVASAKEDPANILQELPAPLLDDKCKKEFDEDVYNHKTPESNIKMKIAWRYQLLPKMEIGPVSSSRFGHYYDASKRMPQELIEASNWHGFFLPEKISSTLKVEPCSLTPGYTKLLQFIQNIIYEEGFDGSNPQKKQRNILRIGIQNLGSPLWGDDICCAENGGNSHSLTKFLYVLRGLLRTSLSACIITMPTHLIQNKAIIARVTTLSDVVVGLESFIGSERETNPLYKDYHGLIHIRQIPRLNNLICDESDVKDLAFKLKRKLFTIERLHLPPDLSDTVSRSSKMDLAESAKRLGPGCGMMAGGKKHLDF

The test has as its target T1, Flag-HA-ID2 (human). Put plainly: tandem Flag/HA affinity purification of Flag-HA-ID2 complexes from NCI-H1299 cells, LC-MS/MS; CRAPome specificity score.
For the molecule “GR75_HUMAN Stress-70 protein (from UniProt P38646)”, the Calculated score [(#peptide*#xcorr)/(AveSC*MaxSC*Found# of Expt.)] was 1.1e-05.

For the molecule tubulin beta-4B chain, the Calculated score [(#peptide*#xcorr)/(AveSC*MaxSC*Found# of Expt.)] is 1.79e-05.

On to Tubulin alpha-1B chain, for which the Calculated score [(#peptide*#xcorr)/(AveSC*MaxSC*Found# of Expt.)] is 1.25e-05. For “78 kDa glucose-regulated protein (from UniProt P11021)”, the Calculated score [(#peptide*#xcorr)/(AveSC*MaxSC*Found# of Expt.)] is 0.000131 and 5.32e-05.

As to “Heat shock cognate 71 kDa protein (NP_694881) (from UniProt P11142-2)”, the Calculated score [(#peptide*#xcorr)/(AveSC*MaxSC*Found# of Expt.)] was 1.88e-05. On to “RING finger protein 113A (from UniProt O15541)”, for which the Calculated score [(#peptide*#xcorr)/(AveSC*MaxSC*Found# of Expt.)] is 0.212. Turning to Tubulin beta chain, the Calculated score [(#peptide*#xcorr)/(AveSC*MaxSC*Found# of Expt.)] is 7.15e-06. Take “heat shock cognate 71 kDa protein isoform 1 (from UniProt P11142)”: the Calculated score [(#peptide*#xcorr)/(AveSC*MaxSC*Found# of Expt.)] is 3.81e-06. Under “heat shock 70 kDa protein 1-like (from UniProt P34931)” stands 7.39e-06. Turning to “Heat shock 70 kDa protein 1A/1B (from UniProt P0DMV8)”, the Calculated score [(#peptide*#xcorr)/(AveSC*MaxSC*Found# of Expt.)] is 4.5e-05.

Regarding “Protein arginine N-methyltransferase 5 (from UniProt O14744) (enzyme)”, the Calculated score [(#peptide*#xcorr)/(AveSC*MaxSC*Found# of Expt.)] is 6.8e-07. Regarding “Elongation factor 1-alpha 2 (from UniProt Q05639)”, the Calculated score [(#peptide*#xcorr)/(AveSC*MaxSC*Found# of Expt.)] is 1.18e-05.

“Transcription factor E2-alpha (from UniProt P15923)”: the Calculated score [(#peptide*#xcorr)/(AveSC*MaxSC*Found# of Expt.)] was 23.8. Under “transcription factor 12 isoform b (from UniProt Q99081)” stands 7.71; under B1, 0.0043.
